We go through two molecules from patent publication US11866760B2, “Microorganisms for the production of insect pheromones and related compounds” (Provivi, Inc., priority 2017, dated 2024).

“And” between values parts separate entries of the source, which are not always exact repeats. Equal values may be shown once. A value given as a limit tells only on which side of the number the result lay.

Type in all cases: cell-based, Saccharomyces cerevisiae
In experiment [1] the test system is Z11-hexadecenoic acid. Kind of experiment: in vivo bioconversion of Z11-hexadecenoic acid into Z11-hexadecenol by alcohol-forming reductases in S. cerevisiae. The text has this: S. cerevisiae W303 (MATA ura3-1 trp1-1 leu2-3_112 his3-11_15 ade2-1 can1-100) and BY4742 (MATa POX1::kanMX his3Δ1 leu2Δ0 lys2Δ0 ura3Δ0) were used as expression hosts. DNA sequences which encode fatty alcohol reductase variants were redesigned to optimize expression in S. cerevisiae (SEQ ID NOs: 1-3). Generated synthons (Genscript) were cloned into pESC-URA vector using BamHI-XhoI sites to facilitate protein expression utilizing the Gal1 promoter. The resulting plasmid constructs were used to transform W303, and positive transformants were selected on CM agar medium (with 2% glucose, and lacking uracil) (Teknova). To assess functional expression, two positive transformation clones that have been patched on CM agar medium (with 2% glucose, and lacking uracil) were used to seed CM liquid medium using a 24 deep-well plate format. […]
The lipids were extracted according to a modified procedure of Hagström et al. (2012) (Hagström, A. K., Liénard, M. A., Groot, A. T., Hedenström, E. & Löfstedt, C. Semi-Selective Fatty Acyl Reductases from Four Heliothine Moths Influence the Specific Pheromone Composition. PLoS One 7: e37230 (2012)). […] The trimethylsilyl-esters, which were generated by this method were subsequently analyzed by GC-MS analysis. […] A Z11-hexadecenol calibration curve shown in FIG. 9 was used to quantify the Z11-hexadecenol produced from yeasts. […]

Experiment [2] concerns S. cerevisiae ΔOLE1. Kind of experiment: ΔOLE1 growth complementation assay without UFA. The text has this: S. cerevisiae ΔOLE1 (MATA OLE1::LEU2 ura3-52 his4) was used as an expression host. A synthetic expression cassette termed pOLE1 (FIG. 10, SEQ ID NO: 4) which comprises the OLE1 promoter region (SEQ ID NOs: 5 and 6), nucleotides encoding for 27 N-terminal amino acids of the OLE1 leader sequence (SEQ ID NO: 7), and a VPS13 terminator sequence (SEQ ID NO: 8) was created, and cloned into pESC-URA vector in between SacI and EcoRI sites. To test the functionality of the pOLE1 cassette, Dasher GFP synthon was inserted in between SpeI and NotI sites to create pOLE1-GFP plasmid. Competent ΔOLE1 was transformed with pOLE1-GFP, and plated on CM-Ura glucose agar plate (Teknova) containing UFA (20 mm CM-URA glucose agar plate was coated with 100 μL CM-Ura glucose medium containing 1% tergitol, and 3 μL palmitoleic acid). […] Validation of ΔOLE1 complementation was performed by restoring OLE1 activity. Specifically, native S. cerevisiae OLE1 synthon was inserted into pOLE1 cassette devoid of the leader sequence to create pOLE1-OLE1 plasmid. After transformation of ΔOLE1, and selection on CM-Ura glucose agar containing UFA, single colonies were patched onto YPD and CM-Ura glucose without UFA. After incubation at 30° C. for 5 days, growth was observed (FIG. 11A-FIG. 11E). As expected, Dasher GFP expression could not complement ΔOLE1 growth without UFA (FIG. 11A-FIG. 11E). DNA sequences which encode for desaturase variants were synthesized (to include nucleotide changes which remove restriction sites used for cloning purposes), and cloned into pOLE1 using SpeI-NotI sites (Genscript, SEQ ID NOs: 9-13). Complementation assay of ΔOLE1 with insect desaturases were performed in the same way as with OLE1 desaturase.

The subject of experiment [3] is palmitic acid. The experiment in a line: in vivo bioconversion of palmitic acid into (Z)-11-hexadecenoic acid in S. cerevisiae ΔOLE1. As to conditions: ΔOLE1, ~96 h in minimal medium containing palmitic acid. On the procedure: To assess functional expression, two positive transformation clones that had been patched on CM-Ura glucose agar medium containing UFA were inoculated in 1.5 mL CM-Ura glucose liquid medium containing palmitic acid (in ethanol) at a final concentration of 300 mg/L, and with 6.7 g/L of YNB. For (z)-11-hexadecenoic isomer confirmation, a 20 mL culture was generated. Bioconversion assay proceeded for 96 h at 28° C. prior to GC-MS analysis.
Total lipid composition as well as the (Z)-11-hexadecenoic acid quantification was based on modified procedures by Moss et al. (1982) (Moss, C. W., Shinoda, T. & Samuels, J. W. Determination of cellular fatty acid compositions of various yeasts by gas-liquid chromatography. J. Clin. Microbiol. 16: 1073-1079 (1982)) and Yousuf et al (2010) (Yousuf, A., Sannino, F., Addorisio, V. & Pirozzi, D. Microbial Conversion of Olive Oil Mill Wastewaters into Lipids Suitable for Biodiesel Production. J. Agric. Food Chem. 58: 8630-8635 (2010)). The pelleted cells (in 1.5 mL plastic tubes), usually about 10 mg to 80 mg, were resuspended in methanol containing 5% (w/w) of sodium hydroxide. […]
The regioselectivity of biologically produced (Z)-11-hexadecenoic acid was determined by comparing the fragmentation patterns of the dimethyl disulfide (DMDS) derivative with the DMDS derivative of an authentic standard. […]

B1: H. armigera reductase: Helicoverpa armigera alcohol-forming fatty acyl-CoA reductase, SEQ ID NO: 41 (protein)
chain: MVVLTSKETKPSVAEFYAGKSVFITGGTGFLGKVFIEKLLYSCPDIENIYMLIREKKGLSVSERIKQFLDDPLFTRLKDKRPADLEKIVLIPGDITAPDLGINSENEKMLIEKVSVIIHSAATVKFNEPLPTAWKINVEGTRMMLALSRRMKRIEVFIHISTAYTNTNREVVDEILYPAPADIDQVHQYVKDGISEEDTEKILNGRPNTYTFTKALTEHLVAENQAYVPTIIVRPSVVAAIKDEPLKGWLGNWFGATGLTVFTAKGLNRVIYGHSSYIVDLIPVDYVANLVIAAGAKSSKSTELKVYNCCSSSCNPVTIGTLMSMFADDAIKQKSYAMPLPGWYIFTKYKWLVLLLTFLFQVIPAYVTDLSRHLIGKSPRYIKLQSLVNQTRSSIDFFTNHSWVMKADRVRELYASLSPADKYLFPCDPTDINWTHYIQDYCWGVRHFLEKKSYE
modifications: Helicoverpa armigera alcohol forming reductase (HaFAR)
Turning to B1, the “activity toward Z11-hexadecenoic acid among the reductases tested” value in experiment [1] (S. cerevisiae) is on record as “most active”. The Z11-hexadecenol production in experiment [1] (W303A, within 48 h of protein induction, 300 mg/L Z11-hexadecenoic acid) was ≤ 70 μM and ≤ 16 mg/L.

B2: S. cerevisiae OLE1: native S. cerevisiae palmitoyl:CoA/stearoyl:CoA (Z)-9-desaturase, positive control (protein, UniProt P21147 1-510, looked up)
Acyl-CoA desaturase 1: MPTSGTTIELIDDQFPKDDSASSGIVDEVDLTEANILATGLNKKAPRIVNGFGSLMGSKEMVSVEFDKKGNEKKSNLDRLLEKDNQEKEEAKTKIHISEQPWTLNNWHQHLNWLNMVLVCGMPMIGWYFALSGKVPLHLNVFLFSVFYYAVGGVSITAGYHRLWSHRSYSAHWPLRLFYAIFGCASVEGSAKWWGHSHRIHHRYTDTLRDPYDARRGLWYSHMGWMLLKPNPKYKARADITDMTDDWTIRFQHRHYILLMLLTAFVIPTLICGYFFNDYMGGLIYAGFIRVFVIQQATFCINSLAHYIGTQPFDDRRTPRDNWITAIVTFGEGYHNFHHEFPTDYRNAIKWYQYDPTKVIIYLTSLVGLAYDLKKFSQNAIEEALIQQEQKKINKKKAKINWGPVLTDLPMWDKQTFLAKSKENKGLVIISGIVHDVSGYISEHPGGETLIKTALGKDATKAFSGGVYRHSNAAQNVLADMRVAVIKESKNSAIRMASKRGEIYETGKFF
On to B2, for which the figures for the “rescue of ΔOLE1 growth without UFA” value in experiment [2] (minimal medium (CM-Ura glucose) agar plate) and in experiment [2] (rich medium (YPD) agar plate) were “rescued ΔOLE1 growth without exogenous UFA” and “highest level of growth”, respectively. In addition, the “(Z)-9-hexadecenoic acid in C16-fatty acid” value in experiment [3] is listed as around 31.4%. The “hexadecanoic acid in C16-fatty acid” value in experiment [3] is reported as “approximately 68.6%”.
